# Reference: publication PMC11401214, “A new generation of nanobody research tools using improved mass spectrometry-based discovery methods” (The Journal of Biological Chemistry, 2024)
# Biological target: mouse IgG (mouse)
# Assay: SPR; Biacore 8K; antigen immobilised on CM5 chip by amine coupling at 1 ug/ml (tdTomato) or 5 ug/ml (GST, IgGs) in 10 mM sodium acetate pH 5.5; nanobody injected in single-cycle kinetics at 0.1-10 nM; 20 mM Na-Hepes pH 7.4, 150 mM NaCl, 0.05% Tween 20; Langmuir 1:1 model, RIgG-1 and GIgG-4 fit to a two-step binding model
row,Binder,Kd
1,LaMIgG-8 (VHH) VHH: QVQLVESGGGLVQAGGSLKLSCATSGFTFSTSVMNWFRQAPGKERDMVAFINPSGSTNYVDSVKGRFTISRDSTKNTVYLQMNSLKPEDTAVYYCQTRLLVDSGWRDYWGQGTQVTVS,1200 pM
2,LaMIgG-14 (VHH) VHH: QVQLVESGGGLVQAGGSLRLSCAASGFTFSTSVMNWFRQAPGKEREMVAFINPSGSTHYVDSVKGRFTISRDSAKNTVYLQLNSLKPEDTAVYYCQTRLFVGAGWRDYWGQGTQVTVS,210 pM
3,LaMIgG-9 (VHH) VHH: QVQLVESGGGLVQAGGSLSLSCATSGRTGDLYAMAWFRQAPGAEREFVATVTAIGGATYYADSVKGRFTISASYARNMVYLQMNSLKPEDSAVYYCAASMKRVWPLHRSDEAEYWGQGTQVTVS,600 pM
4,LaMIgG-5 (VHH) VHH: DVQLVESGGGSVQAGGSLRLSCAASGFIFSKDVMNWFRQAPGKERELVAFINPSGTTHYVDSVKGRFTISRDNVKSTVYLQMNDLKPDDTAVYYCQTRKFVGTTWRDYWGQGTQVTVS,420 pM
